Test results reported in article doi:10.1101/2025.07.18.665471 (bioRxiv, 2025).
“And” between values parts separate entries of the source, which are not always exact repeats. Identical values can stand only once. Like-named read-outs stand apart in the source and are kept apart here.

How the values were obtained:
[1] = target: T1, DNAJC12, wild type, human, full-length (human, UniProt Q9UKB3 1-198); test: SEC
SEC-MALS = target: the molecule itself; test: SEC-MALS
[2] = target: T1, DNAJC12, wild type, human, full-length; test: BLI
[3] = target: T1, DNAJC12, wild type, human, full-length; test: BLI; remark: listed apart in the source

T1 sequence (Q9UKB3 whole entry): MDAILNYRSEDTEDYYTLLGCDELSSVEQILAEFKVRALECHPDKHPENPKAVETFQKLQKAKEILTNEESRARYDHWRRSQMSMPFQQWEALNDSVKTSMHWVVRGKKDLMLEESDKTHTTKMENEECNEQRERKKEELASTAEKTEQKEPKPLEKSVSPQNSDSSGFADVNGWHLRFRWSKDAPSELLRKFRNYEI

Binder | binding result [1] | stoichiometry N (SEC-MALS) | Kd [2] [nM] | Kd [3] [nM]
MBP-PAH(RD), regulatory domain of PAH (PAH(1-112)) fused to maltose binding protein (domain or fragment, human, UniProt P00439 1-112, looked up) MSTAVLENPGLGRKLSDFGQETSYIEDNCNQNGAISLIFSLKEEVGALAKVLRLFEENDVNLTHIESRPSRLKKDEYEFFTHLDKRSLPALTNIIKILRHDIGATVHELSRD | binds |  |  | 
PAH-p.R261Q, PKU-associated variant of phenylalanine hydroxylase (enzyme, human) MSTAVLENPGLGRKLSDFGQETSYIEDNCNQNGAISLIFSLKEEVGALAKVLRLFEENDVNLTHIESRPSRLKKDEYEFFTHLDKRSLPALTNIIKILRHDIGATVHELSRDKKKDTVPWFPRTIQELDRFANQILSYGAELDADHPGFKDPVYRARRKQFADIAYNYRHGQPIPRVEYMEEEKKTWGTVFKTLKSLYKTHACYEYNHIFPLLEKYCGFHEDNIPQLEDVSQFLQTCTGFRLRPVAGLLSSRDFLGGLAFQVFHCTQYIRHGSKPMYTPEPDICHELLGHVPLFSDRSFAQFSQEIGLASLGAPDEYIEKLATIYWFTVEFGLCKQGDSIKAYGAGLLSSFGELQYCLSEKPKLLPLELEKTAIQNYTVTEFQPLYYVAESFNDAKEKVRNFAATIPRPFSVRYDPYTQRIEVLDNTQQLKILADSINSEIGILCSALQKIK | binds |  |  | 
phenylalanine hydroxylase (PAH), wild type, human (enzyme, UniProt P00439 1-452, looked up, biotin (EZ-Link NHS-PEG4-Biotin), for the BLI only) MSTAVLENPGLGRKLSDFGQETSYIEDNCNQNGAISLIFSLKEEVGALAKVLRLFEENDVNLTHIESRPSRLKKDEYEFFTHLDKRSLPALTNIIKILRHDIGATVHELSRDKKKDTVPWFPRTIQELDRFANQILSYGAELDADHPGFKDPVYRARRKQFADIAYNYRHGQPIPRVEYMEEEKKTWGTVFKTLKSLYKTHACYEYNHIFPLLEKYCGFHEDNIPQLEDVSQFLQTCTGFRLRPVAGLLSSRDFLGGLAFRVFHCTQYIRHGSKPMYTPEPDICHELLGHVPLFSDRSFAQFSQEIGLASLGAPDEYIEKLATIYWFTVEFGLCKQGDSIKAYGAGLLSSFGELQYCLSEKPKLLPLELEKTAIQNYTVTEFQPLYYVAESFNDAKEKVRNFAATIPRPFSVRYDPYTQRIEVLDNTQQLKILADSINSEIGILCSALQKIK |  | 4 and 8 | 139 ± 19 | 508 ± 59
